Assay: soluble on expression in E. coli; label from the status in PepcDB or PDB records

Sequence	soluble on expression in E. coli
GSHMASMTGGQQMGRGSEFRSMTAIEDILQITTDPSDTRGYSLLKSEEVPQGSTLGVDFIDTLLLYQLTENEKLDKPFEYLNDCFRRNQQQKRITKNKPNAESLHSTFQEIDRLVIGYGVVALQIENFCMNGAFINYITGIVSNVNSYTDFLSQIIQRAILEGTALDLLNAVFPTLLEYCNKHVSHFDLNESVIYNNVLTIFELFVTFKPIAEIFTKIDGFFADYSCKPQDFERKTILGPILSLSPIEAAVAIRNYGDNLLRSKQQTAMIHESLQAEHKVVIDRLFFIVDKLVRGSLNSRTDMISYFAHIANKNHLRRADHPPFKELSSNGFMSNITLLLVRFSQPFLDISYKKIDKIDANYFNNPSLFIDLSGETRLNSDFKEADAFYDKNRKTADSKPNFISDCFFLTLTYLHYGLGGTLSFEEKMGSEIKALKEEIEKVKKIAANHDVFARFITAQLSKMEKALKTTESLRFALQGFFAHRSLQLEVFDFICGASTFLIRVVDPEHEFPFKQIKLPLIPDQIGVENVDNADFLRAHAPVPFKYYPEFVVEGPVNYSLYISKYQTSPIFRNPRLGSFVEFTTMVLRCPELVSNPHLKGKLVQLLSVGAMPLTDNSPGFMMDIFEHDELVNKNLLYALLDFYVIVEKTGSSSQFYDKFNSRYSISIILEELYYKIPSYKNQLIWQSQNNADFFVRFVARMLNDLTFLLDEGLSNLAEVHNIQNELDNRARGAPPTREEEDKELQTRLASASRQAKSSCGLADKSMKLFEIYSKDIPAAFVTPEIVYRLASMLNYNLESLVGPKCGELKVKDPQSYSFNPKDLLKALTTVYINLSEQSEFISAVAKDERSFNRNLFVRAVDILGRKTGLASPEFIEKLLNFANKAEEQRKADEEEDLEYGDVPDEFLDPLMYTIMKDPVILPASKMNIDRSTIKAHLLSDSTDPFNRMPLKLEDVTPNEELRQKILCFKKQKKEEAKHKASE	soluble
GSHMASMTGGQQMGRGSMNTEELQVAAFEIILNSGNARSIVHEAFDAMREKNYILAEQKLQEANDELLKAHQAQTDLLQEYASGTEIKIEIIMVHAQDHLMTTMTLREVAIEMLELYKKS	soluble
GSHMASTISVKDENGTVKVPKDAKRIVVLEYSFADALAALDVKPVGIADDGKKKRIIKPVREKIGDYTSVGTRKQPNLEEISKLKPDLIIADSSRHKGINKELNKIAPTLSLKSFDGDYKQNINSFKTIAKALNKEKEGEKRLAEHDKLINKYKDEIKFDRNQKVLPAVVAKAGLLAHPNYSYVGQFLNELGFKNALSDDVTKGLSKYLKGPYLQLDTEHLADLNPERMIIMTDHAKKDSAEFKKLQEDATWKKLNAVKNNRVDIVDRDVWARSRGLISSEEMAKELVELSKKEQK	soluble
GSHMIAPLSVKDNDKWVDTHVGKTTEIHLKGNPTTGYMWTRVGFVGKDVLSDEILEVVCKYTPTPSSTPMVGVGGIYVVLVKPRKRGHHTLELVYTRPFEGIKPENERYTLHLNVK	soluble
GSHMNKKSFQCSNCSVTETIRWRNIRSKEGIQCNACFIYQRKYNKTRPVTAVNKYQKRKLKVQETNGVDSF	soluble
GSHMRSEFASGNTYALYVRDTLQPGMRVRMLDDYEEISAGDEGEFRQSNNGVPPVQVFWESTGRTYWVHWHMLEILGFEEDIEDMVEADEYQGAVASRVLGRALP	soluble
GSHMSQVEKDNTQALIPTMNMARQLSEASAWELFAAQNLTSADNEKMWQAQGRMLTAQSLKINALLQALREQGFDTTAIEQQEQEISRSLRQQGELVGQRLQLRQQQQQLSQQIVAAADEIARLAQGQANNATTSAGATQAGIYDLIEQDQRQAAESALDRLIDIDLEYVNQMNELRLSALRVQQMVMNLGLEQIQKNAPTLEKQLNNAVKILQRRQIRIEDPGVRAQVATTLTTVSQYSDLLALYQQDSEISNHLQTLAQNNIAQFAQFSSEVSQLVDTIELRNQHGLA	soluble
GSHMTGPVTKEDLGRATWTFLHTLAAQYPEKPTRQQKKDVKELMTILSRMYPCRECADHFKEILRSNPAQAGSQEEFSQWLCHVHNTVNRSLGKLVFPCERVDARWGKLECEQKSCDLHGTSMDF	soluble
GSHMVGPTYSTAVLNCLKNLDLWCFDVFSLNQAADDHALRTIVFELLTRHNLISRFKIPTVFLMSFLDALETGYGKYKNPYHNQIHAADVTQTVHCFLLRTGMVHCLSEIELLAIIFAAAIHDYEHTGTTNSFHIQTKSECAIVYNDRSVLENHHISSVFRLMQDDEMNIFINLTKDEFVELRALVIEMVLATDMSCHFQQVKTMKTALQQLERIDKPKALSLLLHAADISHPTKQWLVHSRWTKALMEEFFRQGDKEAELGLPFSPLCDRTSTLVAQSQIGFIDFIVEPTFSVLTDVAEKSVQPLADEDSKSKNQPSFQWRQPSLDVEVGDPNPDVVSFRSTWVKRIQENKQKWKERAASGITN	soluble
GSHMYEYPVFSHVQAGMFSPELRTFTKGDAERWVSTTKKASDSAFWLEVEGNSMTTPTGSKTSFPDGMLILVDPEQAVEPGDFCIARLGGDEFTFKKLIRDSGQVFLQPLNPQYPMIPCNESCSVVGKVIASQ	soluble
GSHNLACPTPKEDGLAQQQTQLNLRSLLVNPEGPTLMRLNSVQSSERPLFLVHPIEGSTTVFHSLASRLSIPTYGLQCTRAAPLDSIHSLAAYYIDCIRQVQPEGPYRVAGYSYGACVAFEMCSQLQAQQSPAPTHNSLFLFDGSPTYVLAYTQSYRAKLTPGCEAEAETEAICFFVQQFTDMEHNRVLEALLPLKGLEERVAAAVDLIIKSHQGLDRQELSFAARSFYYKLRAAEQYTPKAKYHGNVMLLRAKTGGAYGEDLGADYNLSQVCDGKVSVHVIEGDHRTLLEGSGLESIISIIHSSLAEPRVSVREG	soluble
GSKGDSKETRLTLMEEVLLLGLKDREGYTSFWNDCISSGLRGCMLIELALRGRLQLEACGMRRKSLLTRKVICKSDAPTGDVLLDEALKHVKETQPPETVQNWIELLSGETWNPLKLHYQLRNVRERLAKNLVEKGVLTTEKQNFLLFDMTTHPLTNNNIKQRLIKKVQEAVLDKWVNDPHRMDRRLLALIYLAHASDVLENAFAPLLDEQYDLATKRVRQLLDLDPEVECLKANTNEVLWAVVAAFTK	soluble
GSKKHSVLHLVPVNITSKADSDVTEVMWQPVLRRGRGLEAQGDIVRVWDTGIYLLYSQVLFHDVTFTMGQVVSREGQGRRETLFRCIRSMPSDPDRAYNSCYSAGVFHLHQGDIITVKIPRANAKLSLSPHGTFLGFVKL	soluble
GSKKRQRFVDKNGRCNVQHGNLGSERAETLMFSEHAVISMRDGKLTLMFRVGNLRNSHMVEAQIRCKLLKSRQTPEGEFLPLDQLELDVGFSTGADQLFLVSPLTICHVIDAKSPFYDLSQRSMQTEQFEVVVILEGIVETTGMTCQARTSYTEDEVLWGHRFFPVISLEEGFFKVDYSQFHATFEVPTPPYSVKEQEEMLLMSSPL	soluble
GSLYKMSSINADFAFNLYRRFTVETPDKNIFFSPVSISAALVMLSFGACCSTQTEIVETLGFNLTDTPMVEIQHGFQHLICSLNFPKKELELQIGNALFIGKHLKPLAKFLNDVKTLYETEVFSTDFSNISAAKQEINSHVEMQTKGKVVGLIQDLKPNTIMVLVNYIHFKAQWANPFDPSKTEDSSSFLIDKTTTVQVPMMHQMEQYYHLVDMELNCTVLQMDYSKNALALFVLPKEGQMESVEAAMSSKTLKKWNRLLQKGWVDLFVPKFSISATYDLGATLLKMGIQHAYSENADFSGLTEDNGLKLSNAAHKAVLHIGEKGTEAAAVPEVELSDQPENTFLHPIIQIDRSFMLLILERSTRSILFLGKVVNPTEA	soluble
GSMAGWQSYVDNLMCDGCCQEAAIVGYCDAKYVWAATAGGVFQSITPAEIDVIIGKDREGFFTNGLTLGGKKCSVIRDSLYVDSDCTMDIRTKSQGGEPTYNVAVGRAGRVLVFVMGKEGVHGGGLNKKAYSMAKYLRDSGF	soluble
GSMKKWSDTEVFEMLKRMYARVYGLVQGVGFRKFVQIHAIRLGIKGYAKNLPDGSVEVVAEGYEEALSKLLERIKQGPPAAEVEKVDYSFSEYKGEFEDFETY	soluble
GSMSSFLGKWKLSESHNFDAVMSKLGVSWATRQIGNTVTPTVTFTMDGDKMTMLTESTFKNLSCTFKFGEEFDEKTSDGRNVKSVVEKNSESKLTQTQVDPKNTTVIVREVDGDTMKTTVTVGDVTAIRNYKRLS	soluble
GSNSLMERIHEQIKKGELALFYLQEQINHFEEKPTKEMKDKIVAEMDTIIAMIDGVRGVLDRLMQRKDLDIFEQYNLEMAKKSGDILERDLKKEEARVKKIEV	soluble
GSPAAAPPTLPPYFMKGSIIQLANGELKKVEDLKTEDFIQSAEISNDLKIDSSTVERIEDSHSPGVAVIQFAVGEHRAQVSVEVLVEYPFFVFGQGWSSCCPERTSQLFDLPCSKLSVGDVCISLTLKNLKNG	soluble
GSPGILMASQGTKRSYEQMETGGERQNATEIRASVGRMVGGIGRFYIQMCTELKLSDQEGRLIQNSITIERMVLSAFDERRNRYLEEHPSAGKDPKKTGGPIYRRRDGKWVRELILYDKEEIRRIWRQANNGEDATAGLTHMMIWHSNLNDATYQRTRALVRTGMDPRMCSLMQGSTLPRRSGAAGAAIKGVGTMVMELIRMIKRGINDRNFWRGENGRRTRIAYERMCNILKGKFQTAAQKAMMDQVRESRNPGNAEIEDLIFLARSALILRGSIAHKSCLPACVYGLAVASGYDFEREGYSLVGIDPFRLLQNSQVFSLIRPNENPAHKSQLVWMACHSAAFEDLRVSSFIRGTRVIPRGQLSTRGVQIASNENVEAMDSSTLELRSRYWAIRTRSGGNTNQQRASAGQISVQPTFSVQRNLPFERATIMAAFKGNTEGRTSDMRTEIIRMMESARPEDVSFQGRGVFELSDEKATNPIVPSFDMSNEGSYFFGDNAEEYDN	soluble
GSPHMLSGSGLCNSSSALPLYNQQVGDCCIIRVSLDVDNGNMYKSILVTSQDKAPAVIRKAMDKHNLEEEEPEDYELLQILSDDRKLKIPENANVFYAMNSTANYDFVLKKRTFT	soluble
GSPQAHPVPKDARITHSSGQSFEQMRQECLQRGTLFEDADFPASNSSLFYSERPQIPFVWKRPGEIVKNPEFILGGATRTDICQGELGDCWLLAAIASLTLNQKALARVIPQDQSFGPGYAGIFHFQFWQHSEWLDVVIDDRLPTFRDRLVFLHSADHNEFWSALLEKAYAKLNGSYEALKGGSAIEAMEDFTGGVAETFQTKEAPENFYEILEKALKRGSLLGCFIDTRSAAESEARTPFGLIKGHAYSVTGIDQVSFRGQRIELIRIRNPWGQVEWNGSWSDSSPEWRSVGPAEQKRLCHTALDDGEFWMAFKDFKAHFDKVEICNLTPDA	soluble
GSSTVTLPETLLFVSTLDGSLHAVSKRTGSIKWTLKEDPVLQVPTHVEEPAFLPDPNDGSLYTLGSKNNEGLTKLPFTIPELVQASPCRSSDGILYMGKKQDIWYVIDLLTGEKQQTLSSAFADSLSPSTSLLYLGRTEYTITMYDTKTRELRWNATYFDYAASLPEDDVDYKMSHFVSNGDGLVVTVDSESGDVLWIQNYASPVVAFYVWQREGLRKVMHINVAVETLRYLTFMSGEVGRITKWKYPFPKETEAKSKLTPTLYVGKYSTSLYASPSMVHEGVAVVPRGSTLPLLEGPQTDGVTIGDKGESVITPSTDVKFDPGLKSKNKLNYLRNYWLLIGHHETPLSASTKMLERFPNNLPKHRENV	soluble
GSVASVHASISGSSASSTSSTPEVKPLKSLLGDSAPTLHLNKGMAILFAVVARGTTILAKHAWCGGNFLEVTEQILAKIPSENNKLTYSHGNYLFHYICQDRIVYLCITDDDFERSRAFSFLNEVKKRFQTTYGSRAQTALPYAMNSEFSSVLAAQLKHHSENHHHHHH	soluble

From the DeepSol protein solubility set
